Molecular target: target antigen of trastuzumab on the target cells (UniProt P04626)
Assay: flow cytometry on cells

binding result: binds
B1: meditope-enabled trastuzumab (antibody, V domains shown)
VH: not shown
VL: DIQMTQSPILLSASVGDRVTITCRASQDVNTAVAWYQQRTNGSPRLLIYSASFLYSGVPSRFSGSRSGTDFTLTISSLQPEDIADYYCQQHYTTPPTFGAGTKVEIK
